Results: paper PMC7854685, “Histone Parylation factor 1 contributes to the inhibition of PARP1 by cancer drugs” (Nature Communications, 2021)
Numbering of substitutions follows the chain as printed. Names and notes keep the numbering of the source. Values joined by “and” are separate entries in the source; they are usually repeats but may differ in a detail not shown here. Equal entries are not always repeated. “Also recorded” adds a separate entry of the source. Where two headings read alike, the source gives them in different places.

B1: HPF1: Histone PARylation factor, protein that binds PARP1 and PARP2 and provides the catalytic base Glu284 (protein)
chain: LRKEVENHYKLSLPEDFYHFWKFCEELDPEKPSDSLSASLGLQLVGPYDILAGKHKTKKKSTGLNFNLHWRFYYDPPEFQTIIIGDNKTQYHMGYFRDSPDEFPVYVGINEAKKNCIIVPNGDNVFAAVKLFLTKKLREITDKKKINLLKNIDEKLTEAARELGYSLEQRTVKMKQRDKKVVTKTFHGAGLVVPVDKNDVGYRELPETDADLKRICKTIVEAASDEERLKAFAPIQEMMTFVQFANDECDYGMGLELGMDLFCYGSHYFHKVAGQLLPLAYNLLKRNLFAEIIEEHLANRSQENIDQLAA
modifications: Alexa647 C2 maleimide label (extent of labeling typically 50-100%); left off: His tag (inferred from the nickel affinity column), end not stated, state not stated
B2: F280A mutant of HPF1: F280A mutant of HPF1 (protein)
chain: B1 chain with F244A

Legend:
PARP1 = biological target: T1, PARP1 (Homo sapiens, UniProt P09874); experiment: Rate of autoPARylation k2[NAD+] (DNA release without PARPi) in presence or absence of HPF1; format: biochemical
T1 construct: Wild-type PARP1 and PARP2 were expressed and purified as previously described; made in house
T1 sequence (P09874 whole entry): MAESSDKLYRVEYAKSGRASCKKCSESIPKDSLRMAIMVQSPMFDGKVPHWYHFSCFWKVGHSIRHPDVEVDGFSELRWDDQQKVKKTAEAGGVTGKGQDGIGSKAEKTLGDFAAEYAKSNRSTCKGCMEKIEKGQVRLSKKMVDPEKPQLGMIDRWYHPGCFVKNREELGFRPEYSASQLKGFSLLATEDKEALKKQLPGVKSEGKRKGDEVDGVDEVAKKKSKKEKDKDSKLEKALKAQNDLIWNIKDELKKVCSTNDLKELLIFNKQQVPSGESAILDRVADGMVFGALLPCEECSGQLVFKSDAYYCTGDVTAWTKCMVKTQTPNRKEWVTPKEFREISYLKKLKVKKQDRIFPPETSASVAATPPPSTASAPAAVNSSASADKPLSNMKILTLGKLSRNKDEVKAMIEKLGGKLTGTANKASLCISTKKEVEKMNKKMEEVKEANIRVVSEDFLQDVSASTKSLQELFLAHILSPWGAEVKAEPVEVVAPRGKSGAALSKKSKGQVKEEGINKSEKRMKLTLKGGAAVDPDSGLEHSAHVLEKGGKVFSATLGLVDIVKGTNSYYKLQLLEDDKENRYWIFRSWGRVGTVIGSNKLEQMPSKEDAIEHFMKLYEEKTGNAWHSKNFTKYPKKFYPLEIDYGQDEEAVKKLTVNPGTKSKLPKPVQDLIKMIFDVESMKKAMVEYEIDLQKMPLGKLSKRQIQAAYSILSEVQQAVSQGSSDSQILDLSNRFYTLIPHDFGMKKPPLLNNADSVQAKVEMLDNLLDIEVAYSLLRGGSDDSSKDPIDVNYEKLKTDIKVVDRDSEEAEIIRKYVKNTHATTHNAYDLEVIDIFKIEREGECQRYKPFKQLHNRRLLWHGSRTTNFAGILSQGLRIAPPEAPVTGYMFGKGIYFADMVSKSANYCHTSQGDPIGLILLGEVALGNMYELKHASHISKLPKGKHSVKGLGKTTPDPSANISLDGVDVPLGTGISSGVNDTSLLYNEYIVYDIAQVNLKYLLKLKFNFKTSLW
Experimental: (§1) Next, 10 µL of PARP1 or PARP2 (10 nM) premixed with fluorescein labeled p18mer DNA (5 nM), was added to the various dilutions of PARPi and then incubated for 30 min to ensure complete association. Dissociation of labeled DNA was initiated by addition of 10 µL of NAD^+ (2 mM). All concentrations cited are final concentrations in a volume of 30 µL. […] Kinetic data for a range of different PARPi (20–500 nM) were exported to Prism (GraphPad) and were globally fitted to individual exponentials1 y=y0−y∞*e^−kobsx+y0 with the constraints that y0 (the value of the FP signal at t = 0) and y∞ (the value of the FP signal at t = ∞) are shared for all concentrations of PARPi. […] We emphasize that the same correction is applied to the data for all PARPi.

PARP2 = biological target: T2, PARP2 (Homo sapiens, UniProt Q9UGN5); experiment: as above; format: biochemical
T2 construct: Wild-type PARP1 and PARP2 were expressed and purified as previously described; made in house
T2 sequence (Q9UGN5 whole entry): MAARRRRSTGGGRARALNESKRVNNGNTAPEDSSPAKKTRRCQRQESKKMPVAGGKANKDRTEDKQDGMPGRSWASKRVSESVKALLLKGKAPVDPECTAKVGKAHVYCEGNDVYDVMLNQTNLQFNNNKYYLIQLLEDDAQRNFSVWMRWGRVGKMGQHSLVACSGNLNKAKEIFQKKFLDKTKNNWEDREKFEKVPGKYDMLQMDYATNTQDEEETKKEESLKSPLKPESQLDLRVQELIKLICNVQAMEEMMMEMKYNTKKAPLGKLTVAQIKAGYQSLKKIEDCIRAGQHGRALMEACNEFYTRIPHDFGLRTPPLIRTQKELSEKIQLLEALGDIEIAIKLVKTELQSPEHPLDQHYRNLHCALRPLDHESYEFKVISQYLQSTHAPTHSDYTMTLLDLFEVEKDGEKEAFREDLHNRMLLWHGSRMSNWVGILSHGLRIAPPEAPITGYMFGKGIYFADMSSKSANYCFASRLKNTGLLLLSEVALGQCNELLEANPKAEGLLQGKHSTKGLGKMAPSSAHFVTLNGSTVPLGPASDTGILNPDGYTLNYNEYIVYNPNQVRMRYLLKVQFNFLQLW
Experimental: as §1

[1] = biological target: PARP1 - Nuc165 / PARP1 - p18mer complex (Homo sapiens, UniProt P09874); experiment: FRET assay of Alexa647-HPF1 binding to Alexa488-PARP1 with p18mer DNA or Nuc165, with or without olaparib; conditions: for Kd: read-out: KD of HPF1
Chain of PARP1 - Nuc165 / PARP1 - p18mer complex (P09874 whole entry): as the sequence (P09874 whole entry) above
Chain of PARP1 - Nuc165 / PARP1 - p18mer complex (Q9NWY4 whole entry partner): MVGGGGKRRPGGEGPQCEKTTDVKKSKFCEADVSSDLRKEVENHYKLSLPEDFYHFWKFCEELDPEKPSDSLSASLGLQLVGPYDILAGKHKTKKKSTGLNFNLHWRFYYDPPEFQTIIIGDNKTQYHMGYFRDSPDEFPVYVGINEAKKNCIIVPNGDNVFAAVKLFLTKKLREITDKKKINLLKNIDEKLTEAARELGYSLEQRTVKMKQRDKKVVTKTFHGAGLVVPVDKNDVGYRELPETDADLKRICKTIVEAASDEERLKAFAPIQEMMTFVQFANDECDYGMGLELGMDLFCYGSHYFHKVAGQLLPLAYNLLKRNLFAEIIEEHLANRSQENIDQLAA
Experimental: Excess unincorporated dye from PARP1 was removed by gel filtration chromatography (S-200). The extent of labeling, defined as the ratio of the molar concentration of dye vs. protein, was determined by UV-Vis spectroscopy and was typically 50–100%. […] All concentrations reflect final concentrations in the plate and all samples were diluted in binding buffer. […] Raw fluorescence intensity values were used to correct the FRET signal for the donor bleed-through and for the acceptor direct excitation, as previously described[43].

Molecule | kobs (individual replicates) (PARP1; PARP1 +HPF1, no PARPi) | kobs(+HPF1) (PARP1; PARP1, no PARPi, 2 mM NAD+) [s⁻¹] | kobs (PARP2; PARP2 + HPF1, replicate fits of the fluorescence polarization time traces (time in s) of sheet SuppFig4CD) | kobs(+HPF1) (PARP2; PARP2, no PARPi, 2 mM NAD+) [s⁻¹] | factor tighter binding to PARP1—Nuc165 than to PARP1—p18mer ([1]; no olaparib) | Kd ([1]; PARP1 – p18mer complex, in the presence of olaparib (1 µM)) [nM] | Kd ([1]; PARP1—Nuc165 complex, in the presence of olaparib (1 µM)) [nM] | Kd ([1]; PARP1—Nuc165 complex, no olaparib) [nM] | binding to PARP1 – Nuc165 complex ([1]; FRET)
B1 | 0.019 and 0.025 and 0.031 | 0.025 ± 0.006 | 0.09827 and 0.07689 and 0.09446 | 0.090 ± 0.011 | 5 | 1200 ± 500 | 229 ± 55 | 790 ± 147 | 
B2 |  |  |  |  |  |  |  |  | does not bind; also recorded: failed to bind
